Data reported in IntAct's records for PubMed 25313826.

B1: Chromatin assembly factor 1 subunit A (Schizosaccharomyces pombe (strain ATCC 38366 / 972)), Q1MTN9 (parent)
chain: MNSESVDSDVAASTSNKGNELCSSSTDITSLSVSSPNESVIHSSHSASEADEYVCKLSYEGNRKKRIYNGSAEAGKEKKLQKQRAQEERIRQKEAERLKREKERQQREQEKKLREQEKIAAKKMKELEKLEKERIRLQEQQRRKEERDQKLREKEEAQRLRQEQILNKERQQLKLNNFFTKGVEKRIAPNENFVADKTDELNEFEKEFRPFFIKHQMSLSKYPSPNESDSFLDEVLSTSKSYPLKLNDIFTPSDAVSSANSLGVSNRNSENEVRQLMSAYQDPSVSKPQEILSCLSQIPIKFIFFYQDVRPPYFGSYTKTHSHGSNVLLNPWLEDEDIDYTYDSEAEWVADEEDDGEDLESEDEEVDNSDDIVEDGDNAFVDDEDDDKDSVNASNTHRSSGPLEVIVEGPVWDSKFLPDFNCLSLIEPISSFSASTYLQIDPKEDLWASQDTAPASSGMTIGPTSSLSDDLQVRFPSEDIPKFIEYVRNSHDNKVFLIENLRHMFPYVTKNIISETLGKVAVRKGKSVSDGWIIKENFASLLSS
partner: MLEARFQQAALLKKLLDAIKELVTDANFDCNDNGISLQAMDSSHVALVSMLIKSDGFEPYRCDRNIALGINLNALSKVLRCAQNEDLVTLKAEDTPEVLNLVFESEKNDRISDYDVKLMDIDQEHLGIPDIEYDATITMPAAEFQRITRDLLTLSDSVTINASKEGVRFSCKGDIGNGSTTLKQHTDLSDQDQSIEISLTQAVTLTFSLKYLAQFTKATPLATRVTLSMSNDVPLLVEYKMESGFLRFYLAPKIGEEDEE

Variants of: B1
Conditions: with pcna_schpo pcn1, Q03392

effect of a mutation on the interaction	Variant
disrupting interaction strength	Q172A;L175A;F178A;F179A
